The values below are quoted from earlier work in publication PMC3058932.

Data set [1] deals with GRP receptor (Homo sapiens) (UniProt P30550). Put plainly: PC-3 membrane binding.
Data set [2] concerns the target GRP receptor (Rattus norvegicus) (UniProt P52500). Put plainly: rat brain membrane binding.
Sequence of UniProt P52500 (P52500 whole entry): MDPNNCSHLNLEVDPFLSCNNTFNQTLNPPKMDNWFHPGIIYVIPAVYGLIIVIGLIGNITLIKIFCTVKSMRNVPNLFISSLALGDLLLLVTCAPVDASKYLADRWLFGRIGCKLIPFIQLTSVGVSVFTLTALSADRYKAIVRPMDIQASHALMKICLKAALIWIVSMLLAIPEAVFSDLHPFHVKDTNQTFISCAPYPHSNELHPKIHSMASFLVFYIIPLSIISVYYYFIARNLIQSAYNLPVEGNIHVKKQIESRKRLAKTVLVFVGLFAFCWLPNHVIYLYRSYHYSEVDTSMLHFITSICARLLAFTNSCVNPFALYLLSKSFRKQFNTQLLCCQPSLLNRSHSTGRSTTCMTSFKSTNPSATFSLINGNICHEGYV

Sequence of UniProt P30550 (P30550 whole entry): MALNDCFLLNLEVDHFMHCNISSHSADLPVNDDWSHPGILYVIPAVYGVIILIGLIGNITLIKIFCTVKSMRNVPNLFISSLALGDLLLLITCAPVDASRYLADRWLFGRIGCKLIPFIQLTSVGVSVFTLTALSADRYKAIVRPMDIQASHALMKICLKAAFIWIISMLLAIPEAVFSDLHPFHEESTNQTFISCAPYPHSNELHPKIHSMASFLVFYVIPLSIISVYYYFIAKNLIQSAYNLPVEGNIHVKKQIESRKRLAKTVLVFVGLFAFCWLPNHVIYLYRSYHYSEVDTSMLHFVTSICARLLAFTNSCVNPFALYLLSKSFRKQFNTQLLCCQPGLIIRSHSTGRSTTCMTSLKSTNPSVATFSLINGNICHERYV

As for bombesin (from UniProt P84214), the values for the Ki in data set [1] and in data set [2] were 1.7 nM and 4.3 nM, respectively.
